# Measurements published in the supplement of paper PMC9112550, “Optimization of the antimicrobial peptide Bac7 by deep mutational scanning” (BMC Biology, 2022).
# System: Escherichia coli TOP10
# Assay: shrunken log2 fold change of peptide-encoding DNA abundance (4.5 h post-induction vs induction); higher = less antimicrobial activity (less host growth inhibition)
# Settings: time post-induction: 4.5 h; library: site-saturation at positions 5, 18, 19, 20
# 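Also: peptides expressed intracellularly from a pBAD plasmid library in pooled LB shake-flask culture, induced with 0.3% L-arabinose, DNA abundance read by NGS, three biological replicates, DESeq2 with apeglm shrinkage.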
row,Sequence,shrunken log2 fold change
1,RRIRRRPPRLPRPRPRPKVHPRP,0.153
2,RRIRRRPPRLPRPRPRPKVLPRP,0.378
3,RRIRRRPPRLPRPRPRPKVPPRP,-0.0226
4,RRIRRRPPRLPRPRPRPKWRPRP,0.587
5,RRIRRRPPRLPRPRPRPKYPPRP,-0.0539
6,RRIRRRPPRLPRPRPRPKYWPRP,0.00676
7,RRIRRRPPRLPRPRPRPLADPRP,0.311
8,RRIRRRPPRLPRPRPRPLAFPRP,0.448
9,RRIRRRPPRLPRPRPRPLDQPRP,-0.0226
10,RRIRRRPPRLPRPRPRPLEAPRP,0.404
11,RRIRRRPPRLPRPRPRPLENPRP,0.194
12,RRIRRRPPRLPRPRPRPLFGPRP,0.649
13,RRIRRRPPRLPRPRPRPLFTPRP,1.61
14,RRIRRRPPRLPRPRPRPLFVPRP,-0.0826
15,RRIRRRPPRLPRPRPRPLGAPRP,0.468
16,RRIRRRPPRLPRPRPRPLGFPRP,0.592
17,RRIRRRPPRLPRPRPRPLHAPRP,1.06
18,RRIRRRPPRLPRPRPRPLHEPRP,-0.0162
19,RRIRRRPPRLPRPRPRPLHLPRP,-0.318
20,RRIRRRPPRLPRPRPRPLHQPRP,0.32
21,RRIRRRPPRLPRPRPRPLHRPRP,0.202
22,RRIRRRPPRLPRPRPRPLKNPRP,0.29
23,RRIRRRPPRLPRPRPRPLLCPRP,0.35
24,RRIRRRPPRLPRPRPRPLMSPRP,-0.246
25,RRIRRRPPRLPRPRPRPLNQPRP,0.0755

row,Sequence,shrunken log2 fold change
1,RRIRRRPPRLPRPRPRPLNSPRP,0.134
2,RRIRRRPPRLPRPRPRPLPKPRP,0.634
3,RRIRRRPPRLPRPRPRPLPYPRP,-0.0149
4,RRIRRRPPRLPRPRPRPLQEPRP,0.019
5,RRIRRRPPRLPRPRPRPLRAPRP,1.17
6,RRIRRRPPRLPRPRPRPLRLPRP,0.59
7,RRIRRRPPRLPRPRPRPLRNPRP,0.94
8,RRIRRRPPRLPRPRPRPLRSPRP,0.531
9,RRIRRRPPRLPRPRPRPLRYPRP,0.463
10,RRIRRRPPRLPRPRPRPLSIPRP,-0.288
11,RRIRRRPPRLPRPRPRPLSMPRP,0.263
12,RRIRRRPPRLPRPRPRPLVEPRP,0.116
13,RRIRRRPPRLPRPRPRPLVNPRP,0.0359
14,RRIRRRPPRLPRPRPRPLVWPRP,0.529
15,RRIRRRPPRLPRPRPRPLYDPRP,-0.0854
16,RRIRRRPPRLPRPRPRPLYKPRP,-0.248
17,RRIRRRPPRLPRPRPRPMAEPRP,-0.0431
18,RRIRRRPPRLPRPRPRPMATPRP,0.609
19,RRIRRRPPRLPRPRPRPMCIPRP,-0.182
20,RRIRRRPPRLPRPRPRPMDHPRP,-0.0417
21,RRIRRRPPRLPRPRPRPMDKPRP,-0.283
22,RRIRRRPPRLPRPRPRPMEMPRP,-0.0817
23,RRIRRRPPRLPRPRPRPMESPRP,-0.00992
24,RRIRRRPPRLPRPRPRPMGFPRP,0.317
25,RRIRRRPPRLPRPRPRPMGTPRP,0.241

row,Sequence,shrunken log2 fold change
1,RRIRRRPPRLPRPRPRPMHHPRP,0.0725
2,RRIRRRPPRLPRPRPRPMHLPRP,0.156
3,RRIRRRPPRLPRPRPRPMILPRP,0.359
4,RRIRRRPPRLPRPRPRPMLCPRP,0.709
5,RRIRRRPPRLPRPRPRPMLNPRP,-0.157
6,RRIRRRPPRLPRPRPRPMNCPRP,-0.0277
7,RRIRRRPPRLPRPRPRPMNGPRP,-0.0419
8,RRIRRRPPRLPRPRPRPMNKPRP,0.0717
9,RRIRRRPPRLPRPRPRPMPEPRP,0.124
10,RRIRRRPPRLPRPRPRPMPTPRP,0.178
11,RRIRRRPPRLPRPRPRPMQAPRP,1.13
12,RRIRRRPPRLPRPRPRPMQCPRP,0.00703
13,RRIRRRPPRLPRPRPRPMQIPRP,0.58
14,RRIRRRPPRLPRPRPRPMREPRP,0.0493
15,RRIRRRPPRLPRPRPRPMRSPRP,0.579
16,RRIRRRPPRLPRPRPRPMSGPRP,0.0609
17,RRIRRRPPRLPRPRPRPMSMPRP,-0.17
18,RRIRRRPPRLPRPRPRPMTCPRP,0.129
19,RRIRRRPPRLPRPRPRPMTDPRP,0.00399
20,RRIRRRPPRLPRPRPRPMTIPRP,0.0416
21,RRIRRRPPRLPRPRPRPMTTPRP,0.0808
22,RRIRRRPPRLPRPRPRPMVFPRP,0.182
23,RRIRRRPPRLPRPRPRPMVHPRP,0.113
24,RRIRRRPPRLPRPRPRPMVQPRP,-0.00615
25,RRIRRRPPRLPRPRPRPMWRPRP,0.312

row,Sequence,shrunken log2 fold change
1,RRIRRRPPRLPRPRPRPNALPRP,0.261
2,RRIRRRPPRLPRPRPRPNCAPRP,0.32
3,RRIRRRPPRLPRPRPRPNCEPRP,0.227
4,RRIRRRPPRLPRPRPRPNDDPRP,0.0687
5,RRIRRRPPRLPRPRPRPNDIPRP,-0.349
6,RRIRRRPPRLPRPRPRPNEWPRP,0.0626
7,RRIRRRPPRLPRPRPRPNEYPRP,-0.123
8,RRIRRRPPRLPRPRPRPNFMPRP,0.142
9,RRIRRRPPRLPRPRPRPNFPPRP,0.46
10,RRIRRRPPRLPRPRPRPNFWPRP,0.198
11,RRIRRRPPRLPRPRPRPNILPRP,-0.0406
12,RRIRRRPPRLPRPRPRPNKHPRP,0.117
13,RRIRRRPPRLPRPRPRPNLLPRP,-0.00833
14,RRIRRRPPRLPRPRPRPNLSPRP,-0.0897
15,RRIRRRPPRLPRPRPRPNNDPRP,-0.358
16,RRIRRRPPRLPRPRPRPNNHPRP,-0.374
17,RRIRRRPPRLPRPRPRPNPNPRP,0.369
18,RRIRRRPPRLPRPRPRPNQYPRP,-0.506
19,RRIRRRPPRLPRPRPRPNRPPRP,0.198
20,RRIRRRPPRLPRPRPRPNRRPRP,0.231
21,RRIRRRPPRLPRPRPRPNSFPRP,-0.29
22,RRIRRRPPRLPRPRPRPNTAPRP,0.0812
23,RRIRRRPPRLPRPRPRPNVRPRP,-0.0448
24,RRIRRRPPRLPRPRPRPNVTPRP,0.0871
25,RRIRRRPPRLPRPRPRPPCEPRP,0.195

row,Sequence,shrunken log2 fold change
1,RRIRRRPPRLPRPRPRPPCIPRP,0.156
2,RRIRRRPPRLPRPRPRPPDHPRP,0.762
3,RRIRRRPPRLPRPRPRPPFMPRP,0.22
4,RRIRRRPPRLPRPRPRPPGEPRP,0.705
5,RRIRRRPPRLPRPRPRPPGNPRP,0.428
6,RRIRRRPPRLPRPRPRPPHEPRP,0.449
7,RRIRRRPPRLPRPRPRPPHFPRP,0.897
8,RRIRRRPPRLPRPRPRPPKEPRP,0.0931
9,RRIRRRPPRLPRPRPRPPLAPRP,1.18
10,RRIRRRPPRLPRPRPRPPMCPRP,0.622
11,RRIRRRPPRLPRPRPRPPMGPRP,0.554
12,RRIRRRPPRLPRPRPRPPMIPRP,0.0196
13,RRIRRRPPRLPRPRPRPPNRPRP,0.4
14,RRIRRRPPRLPRPRPRPPPYPRP,0.366
15,RRIRRRPPRLPRPRPRPPQNPRP,1.4
16,RRIRRRPPRLPRPRPRPPSEPRP,0.974
17,RRIRRRPPRLPRPRPRPPTAPRP,0.569
18,RRIRRRPPRLPRPRPRPPVSPRP,0.332
19,RRIRRRPPRLPRPRPRPPWQPRP,2.01
20,RRIRRRPPRLPRPRPRPQASPRP,0.0463
21,RRIRRRPPRLPRPRPRPQAVPRP,0.331
22,RRIRRRPPRLPRPRPRPQCEPRP,0.153
23,RRIRRRPPRLPRPRPRPQCQPRP,0.0393
24,RRIRRRPPRLPRPRPRPQDPPRP,0.376
25,RRIRRRPPRLPRPRPRPQEGPRP,-0.0768

row,Sequence,shrunken log2 fold change
1,RRIRRRPPRLPRPRPRPQFAPRP,0.0495
2,RRIRRRPPRLPRPRPRPQFFPRP,-0.259
3,RRIRRRPPRLPRPRPRPQFLPRP,-0.0792
4,RRIRRRPPRLPRPRPRPQFQPRP,0.00665
5,RRIRRRPPRLPRPRPRPQGQPRP,-0.0135
6,RRIRRRPPRLPRPRPRPQHAPRP,0.314
7,RRIRRRPPRLPRPRPRPQMCPRP,0.0865
8,RRIRRRPPRLPRPRPRPQNIPRP,-0.33
9,RRIRRRPPRLPRPRPRPQNQPRP,0.0537
10,RRIRRRPPRLPRPRPRPQRQPRP,0.175
11,RRIRRRPPRLPRPRPRPQTWPRP,0.345
12,RRIRRRPPRLPRPRPRPQVDPRP,0.237
13,RRIRRRPPRLPRPRPRPQVFPRP,0.408
14,RRIRRRPPRLPRPRPRPQVQPRP,0.0152
15,RRIRRRPPRLPRPRPRPQVWPRP,0.409
16,RRIRRRPPRLPRPRPRPQWKPRP,0.016
17,RRIRRRPPRLPRPRPRPRAHPRP,0.592
18,RRIRRRPPRLPRPRPRPRDAPRP,0.736
19,RRIRRRPPRLPRPRPRPRDQPRP,0.341
20,RRIRRRPPRLPRPRPRPREAPRP,0.254
21,RRIRRRPPRLPRPRPRPRFDPRP,0.121
22,RRIRRRPPRLPRPRPRPRFQPRP,0.555
23,RRIRRRPPRLPRPRPRPRHGPRP,0.197
24,RRIRRRPPRLPRPRPRPRKGPRP,0.215
25,RRIRRRPPRLPRPRPRPRLFPRP,0.593
